According to US20240287172A1 (SCIRHOM, published 2024):

T1: hiR2-FL-N503A-T7 (human, UniProt Q6PJF5 1-856)
T1 sequence: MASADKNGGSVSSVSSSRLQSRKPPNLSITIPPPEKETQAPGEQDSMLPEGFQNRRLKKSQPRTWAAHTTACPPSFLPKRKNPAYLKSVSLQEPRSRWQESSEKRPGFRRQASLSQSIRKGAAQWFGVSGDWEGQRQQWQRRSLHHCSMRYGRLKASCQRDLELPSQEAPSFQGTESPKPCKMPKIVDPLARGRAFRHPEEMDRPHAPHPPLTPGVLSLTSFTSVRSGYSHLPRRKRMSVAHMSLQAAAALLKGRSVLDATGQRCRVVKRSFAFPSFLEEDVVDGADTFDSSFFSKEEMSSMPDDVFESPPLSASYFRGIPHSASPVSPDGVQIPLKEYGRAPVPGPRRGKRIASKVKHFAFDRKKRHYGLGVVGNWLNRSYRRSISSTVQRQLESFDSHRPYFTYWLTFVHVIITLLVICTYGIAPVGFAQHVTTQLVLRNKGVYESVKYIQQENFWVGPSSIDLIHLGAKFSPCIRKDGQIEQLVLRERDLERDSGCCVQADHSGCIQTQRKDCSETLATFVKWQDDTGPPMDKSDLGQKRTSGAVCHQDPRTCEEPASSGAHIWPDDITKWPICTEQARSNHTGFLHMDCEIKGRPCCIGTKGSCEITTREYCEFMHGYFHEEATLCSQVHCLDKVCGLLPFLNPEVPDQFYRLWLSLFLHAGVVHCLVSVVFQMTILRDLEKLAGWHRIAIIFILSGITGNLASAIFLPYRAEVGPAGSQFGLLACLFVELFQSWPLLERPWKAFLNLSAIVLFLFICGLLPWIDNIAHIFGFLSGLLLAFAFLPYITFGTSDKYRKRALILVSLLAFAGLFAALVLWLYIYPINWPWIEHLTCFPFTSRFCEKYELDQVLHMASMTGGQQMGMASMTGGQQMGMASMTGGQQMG

T2: hiR2-FL-D504A-T7 (human, UniProt Q6PJF5 1-856)
T2 construct: reduced surface expression reported
T2 sequence: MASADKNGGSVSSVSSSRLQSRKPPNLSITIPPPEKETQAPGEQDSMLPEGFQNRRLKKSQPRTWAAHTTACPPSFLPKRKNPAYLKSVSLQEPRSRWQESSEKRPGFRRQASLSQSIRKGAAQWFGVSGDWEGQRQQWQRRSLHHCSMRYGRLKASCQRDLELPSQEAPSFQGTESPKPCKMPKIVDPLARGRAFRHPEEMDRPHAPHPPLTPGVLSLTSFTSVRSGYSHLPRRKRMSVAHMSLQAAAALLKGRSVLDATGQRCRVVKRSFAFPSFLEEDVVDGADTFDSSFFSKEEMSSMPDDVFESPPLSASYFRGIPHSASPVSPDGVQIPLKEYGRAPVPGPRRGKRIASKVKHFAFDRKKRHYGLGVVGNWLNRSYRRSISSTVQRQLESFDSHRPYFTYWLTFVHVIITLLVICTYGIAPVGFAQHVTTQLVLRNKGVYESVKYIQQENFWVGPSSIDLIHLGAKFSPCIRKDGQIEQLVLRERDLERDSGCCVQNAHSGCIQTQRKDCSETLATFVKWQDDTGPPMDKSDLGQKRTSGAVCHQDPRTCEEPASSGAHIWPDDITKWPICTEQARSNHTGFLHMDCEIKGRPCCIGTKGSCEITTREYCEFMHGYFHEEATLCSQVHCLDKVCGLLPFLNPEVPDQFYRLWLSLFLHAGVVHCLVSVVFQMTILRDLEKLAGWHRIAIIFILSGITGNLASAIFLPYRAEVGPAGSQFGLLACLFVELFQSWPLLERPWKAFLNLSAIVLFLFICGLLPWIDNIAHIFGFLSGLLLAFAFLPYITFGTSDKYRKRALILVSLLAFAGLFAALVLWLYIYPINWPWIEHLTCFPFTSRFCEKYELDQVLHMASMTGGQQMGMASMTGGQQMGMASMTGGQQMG


Columns and labels:
hiR2-FL-N503A-T7 = target: T1, hiR2-FL-N503A-T7; assay: FACS on MEF-DKO cells expressing the variant, 3 µg/ml antibody
Outline: (§1)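 Primary stain: antibody 3 μg/ml, 1 h on ice; controls buffer alone. Secondary: PE anti-mouse IgG F(ab′)2 1:100, 1 h on ice, light-protected. Washes at 4° C; read by flow cytometry.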

hiR2-FL-D504A-T7 = target: T2, hiR2-FL-D504A-T7; assay: as above
Outline: as §1

Row | Binder | loss of binding vs wild type (hiR2-FL-N503A-T7) [%] | loss of binding vs wild type (hiR2-FL-D504A-T7) [%]
1 | antibody 48 (antibody, V domains shown, mouse IgG, kappa light chain; also called clone #48; purified antibody 48) VH: QVQLQQSGTELVRPGTSVKVSCKASGYAFTNYLIEWVKQRPGQGLEWIGVINPGSGFTKYNEKFKGKATLTADKSSSTVYMHLSSLTSEDSAVYFCARGLYRAMDYWGQGTSVTVSS VL: DIQMTQSPASQSASLGESVTITCLASQTIATWLAWYQQKPGKSPQLLIYGATTLADGVPSRFSGGGSGTKFSFKISSLQAEDFVSYYCQQLYSTPYTFGGGTKLEIK | ≥ 30 | ≥ 60
2 | antibody 50 (antibody, V domains shown, mouse IgG, kappa light chain; also called clone #50; purified antibody 50) VH: QVQLQQSGAELVRPGASVKVSCKASGYAFSNYLIEWVKQRPGQGLEWIGVINPGSGFTKYNEKFKGKATLTADKSSSTAYMQLSSLTSEDSAVYFCARGLYRAMDYWGQGTSVTVSS VL: DIQMTQSPASQSASLGESVTITCLASQTIGTWLAWYQQKPGKSPQLLIYAAASLADGVPSRFSGGGSGTKFSFKISSLQAEDFVNYYCQQIYSTPYTFGGGTKLEIK | ≥ 30 | ≥ 60
